Measurements reported in the supplement of paper PMC10065799, “High-throughput profiling of sequence recognition by tyrosine kinases and SH2 domains using bacterial peptide display” (eLife, 2023).

Key:
MERTK = MERTK (UniProt Q12866); assay: phosphorylation enrichment, bacterial display (enrichment ratio); higher = better substrate or ligand; peptides without Tyr show the background
Fyn = Fyn (UniProt P06241); assay: as above
Fer (mouse) = assay: as above
EPHB1 = EPHB1 (UniProt P54762); assay: as above
Hck = Hck (UniProt P08631); assay: as above
Jak2 = Jak2 (UniProt O60674); assay: as above
c-Abl (mouse) = assay: as above
c-Src = assay: as above
FGFR1 = FGFR1 (UniProt P11362); assay: as above
Fes = Fes (UniProt P07332); assay: as above
AncSZ = assay: as above
FGFR3 = FGFR3 (UniProt P22607); assay: as above
EPHB2 = EPHB2 (UniProt P29323); assay: as above
Grb2 SH2 = Grb2 SH2 (UniProt P62993); assay: SH2 binding enrichment of the phosphorylated peptide, bacterial display (enrichment ratio); higher = better substrate or ligand; peptides without Tyr show the background
SHP2-C SH2 = assay: as above
c-Src SH2 = assay: as above
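Wherever SH2 binding enrichment of the phosphorylated peptide, bacterial display is given: peptide library displayed on the E. coli surface as eCPX fusions, selected cells deep-sequenced, score is each peptide's frequency after selection divided by its frequency in the input.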
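Wherever phosphorylation enrichment, bacterial display is given: 11-residue human phosphosite peptides and single-mutation variants displayed on the E. coli surface, counted by deep sequencing, each peptide's frequency after selection divided by its frequency in the unselected input library; frequency after pTyr selection over input frequency; kinase dosed for 20-30% of maximal phosphorylation in three min.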

MERTK, sequence (Q12866 whole entry, looked up): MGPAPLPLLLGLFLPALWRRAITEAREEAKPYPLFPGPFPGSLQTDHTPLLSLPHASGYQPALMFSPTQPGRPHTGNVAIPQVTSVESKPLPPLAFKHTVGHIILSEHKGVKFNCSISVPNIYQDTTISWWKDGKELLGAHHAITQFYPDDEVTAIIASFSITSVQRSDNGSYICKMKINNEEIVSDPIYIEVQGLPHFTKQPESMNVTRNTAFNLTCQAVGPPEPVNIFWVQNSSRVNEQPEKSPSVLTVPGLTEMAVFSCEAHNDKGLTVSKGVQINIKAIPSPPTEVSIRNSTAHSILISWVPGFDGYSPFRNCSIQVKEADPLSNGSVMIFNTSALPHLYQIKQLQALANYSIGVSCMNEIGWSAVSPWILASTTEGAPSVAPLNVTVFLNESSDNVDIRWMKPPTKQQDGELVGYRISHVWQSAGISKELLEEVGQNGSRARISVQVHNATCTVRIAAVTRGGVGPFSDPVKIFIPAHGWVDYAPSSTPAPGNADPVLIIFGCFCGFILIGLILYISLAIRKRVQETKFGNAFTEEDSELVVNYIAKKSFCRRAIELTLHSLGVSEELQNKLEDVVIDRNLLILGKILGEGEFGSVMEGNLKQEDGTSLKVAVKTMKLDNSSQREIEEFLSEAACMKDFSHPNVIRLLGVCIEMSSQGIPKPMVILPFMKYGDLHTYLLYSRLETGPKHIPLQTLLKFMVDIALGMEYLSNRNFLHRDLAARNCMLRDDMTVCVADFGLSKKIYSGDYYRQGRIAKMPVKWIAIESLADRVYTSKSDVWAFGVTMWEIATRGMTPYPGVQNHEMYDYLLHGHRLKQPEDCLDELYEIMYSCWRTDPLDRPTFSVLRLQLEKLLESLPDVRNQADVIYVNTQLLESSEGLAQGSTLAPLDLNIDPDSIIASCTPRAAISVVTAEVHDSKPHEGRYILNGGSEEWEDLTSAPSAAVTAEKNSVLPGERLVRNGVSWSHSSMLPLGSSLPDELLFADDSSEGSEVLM
Hck, sequence (P08631 whole entry, looked up): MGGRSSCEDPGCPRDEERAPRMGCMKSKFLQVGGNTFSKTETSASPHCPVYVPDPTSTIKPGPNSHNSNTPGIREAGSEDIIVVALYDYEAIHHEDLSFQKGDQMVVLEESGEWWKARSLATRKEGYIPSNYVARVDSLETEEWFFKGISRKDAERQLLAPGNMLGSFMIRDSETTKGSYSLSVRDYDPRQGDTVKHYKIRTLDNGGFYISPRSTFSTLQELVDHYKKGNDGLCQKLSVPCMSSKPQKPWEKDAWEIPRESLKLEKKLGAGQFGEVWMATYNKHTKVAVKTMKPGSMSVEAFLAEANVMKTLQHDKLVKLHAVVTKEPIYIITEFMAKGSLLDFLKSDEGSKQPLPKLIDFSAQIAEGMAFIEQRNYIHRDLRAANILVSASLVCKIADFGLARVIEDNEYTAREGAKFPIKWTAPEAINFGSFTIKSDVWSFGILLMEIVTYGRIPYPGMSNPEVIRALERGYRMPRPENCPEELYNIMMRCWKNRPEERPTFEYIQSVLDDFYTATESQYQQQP
Fes, sequence (P07332 whole entry, looked up): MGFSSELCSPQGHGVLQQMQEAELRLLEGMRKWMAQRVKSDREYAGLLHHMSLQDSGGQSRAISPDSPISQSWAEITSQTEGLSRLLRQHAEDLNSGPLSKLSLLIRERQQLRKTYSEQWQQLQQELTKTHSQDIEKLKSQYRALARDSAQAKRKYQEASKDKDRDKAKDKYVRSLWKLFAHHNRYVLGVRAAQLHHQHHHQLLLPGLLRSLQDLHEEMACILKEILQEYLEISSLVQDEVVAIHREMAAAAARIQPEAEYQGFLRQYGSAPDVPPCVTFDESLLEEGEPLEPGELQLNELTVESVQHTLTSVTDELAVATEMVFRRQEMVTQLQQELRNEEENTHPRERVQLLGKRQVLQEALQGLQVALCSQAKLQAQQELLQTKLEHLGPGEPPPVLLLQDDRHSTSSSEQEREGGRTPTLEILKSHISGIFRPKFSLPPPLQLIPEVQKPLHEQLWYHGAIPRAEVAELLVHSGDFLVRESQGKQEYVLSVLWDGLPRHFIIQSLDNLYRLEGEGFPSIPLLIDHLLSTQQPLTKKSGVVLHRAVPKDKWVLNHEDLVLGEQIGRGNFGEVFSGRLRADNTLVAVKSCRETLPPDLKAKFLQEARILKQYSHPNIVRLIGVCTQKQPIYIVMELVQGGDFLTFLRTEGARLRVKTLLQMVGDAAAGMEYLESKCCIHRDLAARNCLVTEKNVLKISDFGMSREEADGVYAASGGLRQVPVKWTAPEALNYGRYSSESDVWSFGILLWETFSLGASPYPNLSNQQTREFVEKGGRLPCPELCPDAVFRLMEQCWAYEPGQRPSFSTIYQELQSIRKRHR
EPHB2, sequence (P29323 whole entry, looked up): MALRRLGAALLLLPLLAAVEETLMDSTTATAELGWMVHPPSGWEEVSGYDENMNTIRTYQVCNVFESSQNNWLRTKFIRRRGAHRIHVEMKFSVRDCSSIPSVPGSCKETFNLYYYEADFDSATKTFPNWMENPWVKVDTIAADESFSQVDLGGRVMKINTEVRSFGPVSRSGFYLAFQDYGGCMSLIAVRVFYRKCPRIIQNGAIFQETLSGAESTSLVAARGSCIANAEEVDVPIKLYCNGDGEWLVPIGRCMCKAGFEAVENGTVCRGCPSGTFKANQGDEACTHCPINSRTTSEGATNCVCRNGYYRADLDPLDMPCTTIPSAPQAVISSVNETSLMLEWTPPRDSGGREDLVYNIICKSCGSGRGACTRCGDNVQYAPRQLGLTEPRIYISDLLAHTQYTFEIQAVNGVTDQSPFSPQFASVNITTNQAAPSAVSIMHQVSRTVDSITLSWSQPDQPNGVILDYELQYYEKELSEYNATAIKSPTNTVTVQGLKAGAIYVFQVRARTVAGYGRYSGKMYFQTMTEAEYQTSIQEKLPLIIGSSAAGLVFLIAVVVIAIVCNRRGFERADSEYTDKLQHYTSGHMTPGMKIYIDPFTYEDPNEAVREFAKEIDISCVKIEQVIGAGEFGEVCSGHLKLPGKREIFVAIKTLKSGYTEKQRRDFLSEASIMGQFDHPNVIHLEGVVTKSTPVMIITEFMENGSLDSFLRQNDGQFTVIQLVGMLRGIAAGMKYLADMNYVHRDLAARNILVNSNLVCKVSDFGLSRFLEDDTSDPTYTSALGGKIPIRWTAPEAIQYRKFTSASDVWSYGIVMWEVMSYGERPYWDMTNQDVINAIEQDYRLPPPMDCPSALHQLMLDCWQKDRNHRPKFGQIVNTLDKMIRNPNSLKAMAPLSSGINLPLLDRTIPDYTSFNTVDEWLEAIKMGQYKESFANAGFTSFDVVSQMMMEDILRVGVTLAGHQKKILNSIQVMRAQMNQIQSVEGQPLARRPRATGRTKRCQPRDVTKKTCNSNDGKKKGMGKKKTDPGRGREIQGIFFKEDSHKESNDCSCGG
FGFR3, sequence (P22607 whole entry, looked up): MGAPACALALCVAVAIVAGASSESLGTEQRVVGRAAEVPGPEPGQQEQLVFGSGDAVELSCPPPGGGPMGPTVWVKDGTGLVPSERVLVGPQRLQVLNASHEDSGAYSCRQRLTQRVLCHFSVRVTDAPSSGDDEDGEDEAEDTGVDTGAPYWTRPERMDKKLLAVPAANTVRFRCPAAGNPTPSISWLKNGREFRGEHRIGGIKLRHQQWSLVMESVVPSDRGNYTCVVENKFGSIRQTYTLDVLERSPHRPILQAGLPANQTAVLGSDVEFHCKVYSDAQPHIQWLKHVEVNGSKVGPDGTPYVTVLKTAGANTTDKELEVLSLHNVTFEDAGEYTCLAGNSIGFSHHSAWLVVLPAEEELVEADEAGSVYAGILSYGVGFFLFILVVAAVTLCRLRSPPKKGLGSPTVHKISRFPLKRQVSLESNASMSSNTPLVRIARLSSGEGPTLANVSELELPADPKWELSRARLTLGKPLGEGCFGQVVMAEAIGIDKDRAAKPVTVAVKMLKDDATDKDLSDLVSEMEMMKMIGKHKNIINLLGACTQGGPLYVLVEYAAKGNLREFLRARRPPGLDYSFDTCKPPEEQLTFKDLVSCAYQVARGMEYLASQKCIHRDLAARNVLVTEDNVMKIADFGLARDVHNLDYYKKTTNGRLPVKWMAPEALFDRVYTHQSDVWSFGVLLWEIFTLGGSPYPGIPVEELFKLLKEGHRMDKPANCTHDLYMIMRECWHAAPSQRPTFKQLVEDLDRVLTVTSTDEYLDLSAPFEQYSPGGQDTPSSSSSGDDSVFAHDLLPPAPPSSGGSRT
FGFR1, sequence (P11362 whole entry, looked up): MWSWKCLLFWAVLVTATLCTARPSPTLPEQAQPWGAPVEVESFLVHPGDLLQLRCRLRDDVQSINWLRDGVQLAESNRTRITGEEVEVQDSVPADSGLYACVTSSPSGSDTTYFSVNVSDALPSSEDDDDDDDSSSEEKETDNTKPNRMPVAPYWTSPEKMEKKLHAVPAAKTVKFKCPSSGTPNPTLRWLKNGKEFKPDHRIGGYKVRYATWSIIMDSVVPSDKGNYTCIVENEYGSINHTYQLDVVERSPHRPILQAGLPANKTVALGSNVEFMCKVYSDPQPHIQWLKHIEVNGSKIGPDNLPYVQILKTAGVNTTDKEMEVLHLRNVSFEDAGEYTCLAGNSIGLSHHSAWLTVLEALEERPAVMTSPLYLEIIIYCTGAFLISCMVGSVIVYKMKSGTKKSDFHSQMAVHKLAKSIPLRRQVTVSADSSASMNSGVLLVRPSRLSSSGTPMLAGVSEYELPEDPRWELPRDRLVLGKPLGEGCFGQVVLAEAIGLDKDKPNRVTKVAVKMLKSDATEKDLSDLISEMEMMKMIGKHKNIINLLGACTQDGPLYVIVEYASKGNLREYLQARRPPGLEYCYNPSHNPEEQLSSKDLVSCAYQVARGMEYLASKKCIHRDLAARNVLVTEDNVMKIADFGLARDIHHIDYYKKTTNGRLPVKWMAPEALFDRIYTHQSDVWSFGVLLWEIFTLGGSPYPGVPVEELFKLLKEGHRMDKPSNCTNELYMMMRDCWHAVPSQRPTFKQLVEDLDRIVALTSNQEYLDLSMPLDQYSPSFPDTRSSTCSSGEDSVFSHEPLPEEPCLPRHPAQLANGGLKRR

Sequence | SH2 binding enrichment (Grb2 SH2) | SH2 binding enrichment (SHP2-C SH2) | SH2 binding enrichment (c-Src SH2) | phosphorylation enrichment (MERTK) | phosphorylation enrichment (Fyn) | phosphorylation enrichment (Fer (mouse)) | phosphorylation enrichment (EPHB1) | phosphorylation enrichment (Hck) | phosphorylation enrichment (Jak2) | phosphorylation enrichment (c-Abl (mouse)) | phosphorylation enrichment (c-Src) | phosphorylation enrichment (FGFR1) | phosphorylation enrichment (Fes) | phosphorylation enrichment (AncSZ) | phosphorylation enrichment (FGFR3) | phosphorylation enrichment (EPHB2)
VRTGIYHGREP [PIK3CA_Y361_G364R] | 1.06 | 0.766 | 0.568 | 0.291 | 0.357 | 0.374 | 0.302 | 0.638 | 0.491 | 0.581 | 0.503 | 0.324 | 0.599 | 0.478 | 0.46 | 0.38
VSFDEYRFRSF [CFTR_Y515_V520F_YF] | 0.834 | 0.715 | 0.393 | 0.45 | 0.569 | 0.502 | 0.612 | 0.484 | 1.11 | 0.982 | 0.561 | 0.514 | 1.12 | 0.903 | 0.739 | 0.568
VSLLPYFPAIM [IPO4_Y518_A513V] | 0.902 | 0.848 | 0.602 | 0.369 | 0.541 | 0.508 | 0.646 | 0.541 | 2.06 | 0.754 | 0.443 | 0.719 | 1.32 | 1.12 | 0.873 | 0.657
VTAALYGRLFE [BTD_Y536_YF] | 1.16 | 1.16 | 0.627 | 1.08 | 6.32 | 0.436 | 0.535 | 5.74 | 0.633 | 0.626 | 4.97 | 0.439 | 0.734 | 0.748 | 0.527 | 0.656
VTRANYFIRDE [GNAS_Y339_K338N] | 0.984 | 0.8 | 0.434 | 0.45 | 0.474 | 0.45 | 0.541 | 0.388 | 0.845 | 0.712 | 0.494 | 0.412 | 0.736 | 0.705 | 0.621 | 0.449
VVGMLYVGGLP [LAMA2_Y2886] | 0.78 | 0.785 | 0.461 | 0.449 | 0.455 | 0.486 | 0.727 | 0.454 | 1.08 | 0.742 | 0.388 | 0.491 | 1.2 | 0.999 | 0.683 | 0.644
WASSSYRETPS [SORBS1_Y79_R74W] | 0.779 | 0.846 | 0.467 | 0.39 | 0.402 | 0.389 | 0.411 | 0.409 | 0.45 | 0.391 | 0.362 | 0.438 | 0.57 | 0.57 | 0.444 | 0.353
WCSNDHLGMSR [ALAS2_Y199_Y199H] | 0.801 | 0.811 | 0.684 | 0.418 | 0.434 | 0.438 | 0.394 | 0.375 | 0.537 | 0.504 | 0.447 | 0.416 | 0.671 | 0.754 | 0.576 | 0.514
WDSSGYWTPEE [PAPPA2_Y908_C903W] | 1.2 | 2.08 | 36.9 | 0.502 | 0.53 | 0.569 | 0.521 | 0.449 | 1.28 | 0.672 | 0.453 | 0.855 | 1.08 | 1.41 | 0.87 | 0.533
WFKKFYDANYD [MAPRE2_Y158] | 0.82 | 0.722 | 0.581 | 0.399 | 0.398 | 0.398 | 0.477 | 0.423 | 0.899 | 0.774 | 0.364 | 0.43 | 1.03 | 1.18 | 0.552 | 0.529
WKKKIYEESST [MOCS2_Y170_E168K] | 0.62 | 0.481 | 0.415 | 0.432 | 0.534 | 0.449 | 0.393 | 0.511 | 0.794 | 0.761 | 0.448 | 0.423 | 1.05 | 0.818 | 0.813 | 0.526
WQQQSYLASGI [CTNNB1_Y30_D32A] | 0.822 | 0.588 | 0.52 | 0.411 | 0.487 | 0.442 | 0.532 | 0.447 | 0.638 | 0.686 | 0.5 | 0.463 | 0.754 | 0.642 | 0.533 | 0.51
WSQAMYPDLGP [STARD8_Y330_R327Q] | 1.07 | 0.766 | 0.774 | 0.393 | 0.47 | 0.475 | 0.476 | 0.486 | 0.765 | 0.648 | 0.47 | 0.493 | 0.921 | 1.06 | 0.583 | 0.636
YCRIMYDIFPF [INTS13_Y67] | 1.01 | 1.12 | 1.64 | 4.92 | 2.55 | 2.06 | 6.02 | 3.78 | 1.51 | 1.7 | 2.98 | 3.47 | 1.48 | 1.85 | 2.89 | 5.07
YGTAQYCCRMG [LRRK2_Y2023_I2020T] | 0.991 | 0.752 | 0.823 | 2.78 | 1.01 | 0.603 | 0.714 | 1.2 | 0.506 | 3.23 | 0.757 | 0.498 | 0.613 | 0.719 | 0.603 | 9.81
YISLIYTNYEA [GSTP1_Y109] | 1.24 | 1.53 | 1.75 | 3.44 | 3.72 | 1.72 | 1.7 | 2.83 | 1.23 | 1.31 | 4.21 | 4.5 | 1.23 | 1.68 | 3.6 | 1.71
YPKVRYHWLVL [APTX_Y214_A212V] | 1.05 | 1.17 | 0.756 | 0.448 | 0.531 | 0.506 | 0.652 | 0.547 | 1.06 | 1.15 | 0.474 | 0.681 | 1.35 | 1 | 1.03 | 0.758
YRASYYRKGGC [ALK_Y1283] | 0.691 | 0.512 | 0.484 | 0.561 | 0.485 | 0.636 | 0.57 | 0.488 | 0.678 | 0.653 | 0.552 | 0.514 | 0.677 | 0.808 | 0.513 | 0.435
YRRITYHNWRH [PDE6B_Y556] | 1.15 | 0.553 | 0.453 | 0.562 | 0.525 | 0.452 | 0.376 | 0.477 | 0.585 | 0.53 | 0.606 | 0.386 | 0.637 | 0.642 | 0.425 | 0.362
YTHSDYQYGQR [PKP2_Y166_S169G] | 0.712 | 0.885 | 0.692 | 0.424 | 0.476 | 0.572 | 0.436 | 0.703 | 0.317 | 0.492 | 0.439 | 0.531 | 0.496 | 0.867 | 0.606 | 0.416

Now from value to sequence, other results behind:

SH2 binding enrichment (Grb2 SH2) | SH2 binding enrichment (SHP2-C SH2) | SH2 binding enrichment (c-Src SH2) | Sequence | phosphorylation enrichment (MERTK) | phosphorylation enrichment (Fyn) | phosphorylation enrichment (Fer (mouse)) | phosphorylation enrichment (EPHB1) | phosphorylation enrichment (Hck) | phosphorylation enrichment (Jak2) | phosphorylation enrichment (c-Abl (mouse)) | phosphorylation enrichment (c-Src) | phosphorylation enrichment (FGFR1) | phosphorylation enrichment (Fes) | phosphorylation enrichment (AncSZ) | phosphorylation enrichment (FGFR3) | phosphorylation enrichment (EPHB2)
0.772 | 0.912 | 0.818 | VVPGSYDRLRV [IFT172_Y260_L257P] | 0.469 | 0.359 | 0.332 | 0.353 | 0.486 | 0.462 | 0.406 | 0.399 | 0.394 | 0.603 | 0.496 | 0.439 | 1.13
0.906 | 0.803 | 0.706 | WAFNLYDINKY [KCNIP3_Y174_D179Y] | 2.65 | 1.83 | 3.29 | 2.29 | 3.09 | 0.953 | 0.709 | 1.57 | 0.553 | 1.24 | 0.987 | 0.725 | 3.92
0.89 | 0.77 | 0.784 | WDLPEYSYKDP [ITGA3_Y237_S235P] | 0.464 | 1.12 | 0.517 | 0.631 | 0.787 | 1.18 | 0.545 | 0.495 | 0.688 | 1.18 | 2.12 | 0.926 | 0.651
0.916 | 1.29 | 0.661 | WDLSEYSFKDP [ITGA3_Y237_YF] | 0.445 | 2.17 | 0.556 | 0.682 | 0.985 | 1.21 | 0.853 | 2.11 | 0.625 | 1.23 | 2.14 | 0.885 | 0.618
0.729 | 0.748 | 0.488 | WIPIQDPIISE [NOG_Y222_Y222D] | 0.474 | 0.578 | 0.52 | 0.678 | 0.622 | 0.965 | 0.882 | 0.557 | 0.578 | 1.24 | 1.18 | 0.717 | 0.551
0.903 | 0.796 | 0.643 | WNDLDYVDSRR [GAA_Y407_M408V] | 0.357 | 0.373 | 0.45 | 0.515 | 0.521 | 0.89 | 0.53 | 0.478 | 0.567 | 0.94 | 1.44 | 0.67 | 0.869
0.679 | 0.581 | 0.417 | WNDPDYMDSRR [GAA_Y407_L405P] | 0.351 | 0.493 | 0.432 | 0.989 | 0.472 | 0.779 | 0.614 | 0.453 | 0.553 | 1 | 1.46 | 0.727 | 0.687
0.858 | 0.664 | 0.499 | WQQQSYLGSGI [CTNNB1_Y30_D32G] | 0.357 | 0.372 | 0.389 | 0.362 | 0.471 | 0.544 | 0.521 | 0.421 | 0.634 | 0.61 | 0.748 | 0.493 | 0.469
0.731 | 0.66 | 0.349 | WRPFGYPRRRR [BCS1L_Y181] | 0.487 | 0.518 | 0.462 | 0.486 | 0.453 | 0.494 | 0.444 | 0.446 | 0.367 | 0.513 | 0.615 | 0.522 | 0.481
0.901 | 0.577 | 0.552 | YAREGYSALPQ [SARS2_Y52] | 0.442 | 0.396 | 0.439 | 0.499 | 0.58 | 0.904 | 0.541 | 0.373 | 0.522 | 0.789 | 0.678 | 0.52 | 0.459
0.678 | 0.665 | 0.589 | YRIDHYLGKEM [G6PD_Y202] | 0.508 | 0.757 | 0.445 | 0.467 | 0.57 | 0.865 | 0.706 | 0.485 | 0.57 | 0.909 | 0.716 | 0.654 | 0.627
